Target: MBP-SpyTag
Assay: SDS-PAGE coupling assay, biotin-HPDP-modified Catcher, without TCEP, one hour

loss of activity: 50%
B1: SpyCatcher Ala87→Cys modified with biotin-HPDP (designed binder)
chain: VTTLSGLSGEQGPSGDMTTEEDSATHIKFSKRDEDGRELAGATMELRDSSGKTISTWISDGHVKDFYLYPGKYTFVETAAPDGYEVCTPIEFTVNEDGQVTVDGEATEGDAHT
